This is an account of results in a protein production outcome set (Wang et al. 2014).
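Further: failed if final PepcDB status was selected cloned or expressed and not failed if soluble or beyond.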

A short description of the series: label from the status in PepcDB records.
For “MKDSVDCPSILPTDRTSVLSETSTLVGSSSHVYSRHAPMNSYHNSMNSNIYHSPKASSPLVSYKTSSPVLLKRATAPVLPSFKPKEQRYNKPQGCSLITAVELGKIIETLPDEKVLLLDVRPFTEHAKSIITNSIHVCLPSTLLRRKNFTFSKLLDNLTPSEQSVLKSKLAIDNLRIIIYDSTANQTESSVSLPCYGIASKLIEFDTNVKKTVSILMCGFPQFKILFPDHINTNTFNSDCISSAEPKSPKTNLMNSLHNTAPHMTATTPLSSPQMNLKLKVPDDSRSDHSNFSSSPSPRNVLSDSPMSSSSPISALFKFQLPAPQTNINQMFKFSQNEEIMGLETYLSAVNIKEEHERWYNNDSAKKSLQNFQFPKNQNSLEKDTNKDKLGFQIRYENLSKNYEKEVIDSVIPEWFQHLMSIPKIELVSQFQKLDFLEKRRLNHSVSFRKKENSFILEKPSSYPEQLTSTSSSTIMPPKFPDVNKVQKRSHSQPIFTQYSKYKSMLSLESDSDSESDDVIISSGVELGAKNRYKDIFPYEHSRVILKKGLQSSKGIKHSHSTSDGGILDNYINANYLSLPRFSVEQNSSFQTTTTTTRRVRYIATQAPMPSTVHDFYTCILNNGVPLVLSLTNDFENGIEKCYRYWQEGNYNGIHVKLLEKKILKMPSTTSMRKNTMGTQNSSLYSAGVQGNSSNYSTDNDNDNDNNNNNNNNSNIPVTAAACDDDDDDDDDAILIRQILLTYHDQEKPYELLQIQVKNWPDLGTLLNPISILQAINVKNHIIDTLFARNYYQNDQLPTILVHCSAGCGRTGTLCTIDSILSNFEMFEMLQKEFVKLKYPAKLFDPISWTINIFRKERISMVQNINQFIFIYDCLLFYFRLRLDDITERTDGDGSNKDNISLSALIEQIEKLEILQTFVDDKLKELPQ”, the protein production entry was “failed”.
In the case of “MKDVLAEYASRIVSAEEAVKHIKNGERVALSHAAGVPQSCVDALVQQADLFQNVEIYHMLCLGEGKYMAPEMAPHFRHITNFVGGNSRKAVEENRADFIPVFFYEVPSMIRKDILHIDVAIVQLSMPDENGYCSFGVSCDYSKPAAESAHLVIGEINRQMPYVHGDNLIHISKLDYIVMADYPIYSLAKPKIGEVEEAIGRNCAELIEDGATLQLGIGAIPDAALLFLKDKKDLGIHTEMFSDGVVELVRSGVITGKKKTLHPGKMVATFLMGSEDVYHFIDKNPDVELYPVDYVNDPRVIAQNDNMVSINSCIEIDLMGQVVSECIGSKQFSGTGGQVDYVRGAAWSKNGKSIMAIPSTAKNGTASRIVPIIAEGAAVTTLRNEVDYVVTEYGIAQLKGKSLRQRAEALIAIAHPDFREELTKHLRKRFG” it was “not failed”; in that of “MKEDIVSGTVKRVERHGIIVEVVAGKLDALIPRDQMIPRENFRSGDRIRALFLRVEEIGNTGRKQVILSRTSGLEHHHHHH”, “not failed”; in that of “MKEDKKLVKQARQNFRSNLKSARMHYRKEVRTLKQTVPKKGRFRKSAKNSLFQEKKTELKGNLLSSQKEAEEKFIKEITYVSPRLLKAKEIKNYRLPQAQERLRTARKHLSEVKLSEKQQVVNPKFTFQKENPSLKSRFQFHQEKSFDRLSAEKDVSSAKREVKQLKKVQKTKKNSTKVKAGLGLAASESLDLIAQEDDLDGLRTMKDTSLKARRYGRFTYQAGKVAVKSGQTGVRFTKTKFSHGKERFQNFKKGKGFTRQKPLKPRRRYQTFLNHVRKQSVAGFKGIVQAIKGSMTFFSVLAGNPLTWIVSGILLILLLMMSFFMSVSGSSVIQQDEIELSKSYTHMTWEDAEHTRTNDKGITFYTKIDEVMVYMNHQYQDYKLDDFIETSGTTYKEFLSQLWSDLNGGDSIKSMSDLYKEPAYKLSDEDQEELNELTEEGNYLALQELDNPFQGQTDEDSLSMTYRYGYEVIDEKPTLHHHIILEAKEGQVIVAPMDGKVSLDGENVVLTSGKGVNKTKLTLFGIHSGRVSENQQVLAGDIIGQTKDGTGLKVTYQKVDDDTDKLVYVNPAFYFPKVIQVQTTILPTIGQFGGDEFERAKAIYDYLKSKGATNQAIAAILGNWSVESSINPKRAEGDYLSPPVGATDSSWDDEGWLTLNGPTIYNGRYPNILKRGLGLGQWTDTADGSRRHTLLLEYAKGKHQKWYDLGLQLDFMLYGDSPYYTNWLKDFFKNSGSPASLAQLFLIYWEGNSGDKLLERQTRASEWYYQIEKGFSQPNGGTAQSDPKALEAVREDLFENSIPGGGDGMGYAYGQCTWGVAARINQLGLKLKGKNGEKIPIISTMGNGQDWVRTAASLGGETGTSPQEGAILSFAGGGHGTPTEYGHVAFVEKVYPDGSFLISETNYNGNPNYTFRKLSGVDSSLSFAYTTK”, “failed”.
With “MKEFVHDYLAASVENEEEGGRMRWYPWHSAEYRFNHILNVVDIATKIARKEGANVDVTRVAALFHDIAKLEAEQDLHAEAGARIAREYLRAHGDYPESFIEQVCSAVEVHSYQGSLDDLPLEVQCLIEADILDKVGANGTALMLLRMGYESRTHMDAAEMVDRVIERGEDARERVQSDTAESLVHQRLKRTRWFQEWLTMEVAEMAVEDDLDDVATGMGDSLEHHHHHH” the entry was “not failed”.
In the case of “MKEIVERVKTKTKIPVYERSVENVLSAVLASDDIWRIVDLSEEPLPLVVAILESLNELGYVTFEDGVKLTEKGEELVAEYGIGKRYDFTCPHCQGKTVDLQAFADLLEQFREIVKDRPEPLHEFDQAYVTPETTVARVILMHTRGDLENKDIFVLGDDDLTSIALMLSGLPKRIAVLDIDERLTKFIEKAANEIGYEDIEIFTFDLRKPLPDYALHKFDTFITDPPETLEAIRAFVGRGIATLKGPRCAGYFGITRRESSLDKWREIQKLLLNEFNVVITDIIRNFNEYVNWGYAEETRAWKLIPIKKLPEYNWYKSYMFRIETLEGSRGYEDEIPEEDIYNDEESSTT” it was “not failed”.
As for “MKEKVVLAYSGGLDTSVILKWLCEKGFDVIAYVANVGQKDDFVAIKEKALKTGASKVYVEDLRREFVTDYIFTALLGNAMYEGRYLLGTAIARPLIAKRQVEIAEKEGAQYVAHGATGKGNDQVRFELTYAALNPNLKVISPWKDPEFLAKFKGRTDLINYAMEKGIPIKVSKKRPYSEDENLMHISHEAGKLEDPAHIPDEDVFTWTVSPKDAPDEETLLEIHFENGIPVKVVNLKDGTEKTDPLELFEYLNEVGAKNGVGRLDMVENRFIGIKSRGVYETPGATILWIAHRDLEGITMDKEVMHLRDMLAPKFAELIYNGFWFSPEMEFLLAAFRKAQENVTGKVTVSIYKGNVMPVARYSPYSLYNPELSSMDVEGGFDATDSKGFINIHALRLKVHQLVKKGYQR”, the protein production entry is listed as “not failed”.
With “MKENDGAPLKEGETASKYSVIINMILVVIKGFTGYLSGNIALIADAIHSFADVFSSAAVFIGLKLSQRKPDELFPYGYHRIETLVSLLVSVLIIITGLEITWDSIIYILNPASEVSMATASLAVSLISIGVSYAIAFYKVRVGRRIGSTALLNDGKHSYVDVISSILVFLGILGEYMGLHGFQGIAGVIISVVIIYIGIRLAKYDVLTLLDACIDRDSIEVIKKTVLSVPGVEGVHDIRIRRSGPYLFGELHIELERGLPVDKIEGIISQINSRVKEVLPSIDHLTVQPETVKREEVVVAVPLADNHGMESRISTHFGRADSFLIARTRRGEILDYRIIENSGKSLRTKRGIRAAELLKDENIDVLVIEKLSEGPELLFSDYLLGKVPPEGSSLEEVIKNASMKFSE” the entry was “failed”; with “MKENKLDYIPEPMDLSLVDLPESLIQLSERIAENVHEVWAKARIDEGWTYGEKRDDIHKKHPCLVPYDELPEEEKEYDRNTAMNTIKMVKKLGFRIEKED”, “not failed”.
In the case of “MKEVSAAPKITNVKAAILGFQHLLAMYSGDVLVPLLIGAALHFSQEQLTYLVSIDIFMCGIATFLQLKRTPLTGIGLPVVLGCAVQAVNPLIQIGKTYGLGTMYGSIIGAGIFIFLIAGLFSKIKNLFPPVVTGSLITIIGFTLIPVAFQNLGGGDTSAKDFGNLQALGIGFLTIAIILLISVFARGFMKSVSILIGILVGTLIAGAMGMVSLKPVAEASWFHLPTLFYFGTPHFEWSSILTMILVSLTTMVESTGVFFALGDITGRKIEGDDLKRGYRAEGIAVILGGLFSTFPYSTFSENVGVVQLSGVKTRKPIYFSAAFLVVLGLLPKIGALATIIPDPVLGGAMVVMFGIVGIQGIRMLAQVDFRNNNNLLVAAVSIGLGLGVTVQTNIFQFLPGALQIMLSNGVVVGSVAAVGLNLLFNRHAAENTVDDESVGLNETEQP”, the protein production entry was “failed”.
In the case of “MKFIIEALKRVRERRPLVHNITNFVVMNTTANALLALGASPVMAHAEEELEEMIRLADAVVINIGTLDSGWRRSMVKATEIANELGKPIVLDPVGAGATKFRTRVSLEILSRGVDVLKGNFGEISALLGEEGKTRGVDSLEYGEEEAKKLTMNAAREFNTTVAVTGAVDYVSDGRRTFAVYNGHELLGRVTGTGCMVAALTGAFVAVTEPLKATTSALVTFGIAAEKAYEEAKYPGSFHVKLYDWLYRINENVIRTYAKVREVEL”, the protein production result is given as “not failed”.
In the case of “MKFKIHSDITYQVMSPTTFIFNVHALRTESQHILDESLIVTPPIEIEEFSYNSGTSRFVRLKATENTTFSMSYTATVDTQYKVIDQRQELETVPVVDLDGDIIPFLFPSRYCQSDKLQKLAYKEFGKIENVYSKVLAITDWIYNNVEYISGSTNSQTSAFDTITERAGVCRDFAHLGIALCRALSIPARYFTGYAFKLNPPDFHACFEAYIGGNWIIFDATRLVPLNGLVKIATGRDAADAAVASIFGNASSTNMHVECASLDTDFTPFWYDKNSLKGLSFQ” it was “not failed”.
With “MKFLPYIFLLCCGLWSTISFADEDYIEYRGISSNNRVTLDPLRLSNKELRWLASKKNLVIAVHKSQTATLLHTDSQQRVRGINADYLNLLKRALNIKLTLREYADHQKAMDALAEGEVDIVLSHLVTSPPLNNDIAATKPLIITFPALVTTFHDSMRPLTSPKPVNIARVANYPPDEVIHQSFPKATIISFTNLYQALASVSAGHNDYFIGSNIITSSMISRYFTHSLNVVKYYNSPRQYNPLLTRKESVILNEVLNRFVDALTNEVRYEVSQNRLDTGNLAFLNKPLELTEHEKQWIKQHPNLKVLENPYSPPYSMTDENGSVRGVMGDILNIITLQTGLNFSPITVSHNIHAGTQLSPGGWDIIPGAIYSEDRENNVLFAEAFITTPYVFVMQKAPDSEQTLKKGMKVAIPYYYELHFELKEMYPEVEWIQVDNASAAFHKVKEGELDALVATQLNSRYMIDHYYPNELYHFLIPGVPNASLSFAFPRGEPELKDIINKALNAIPPSEVLRLTEKWIKMPNVTIDTWDLYSEQFYIVTTLSVLLVGSSLLWGFYLLRSVRRRKVIQGDLENQISFRKALSDSLPNPTYVVNWQGNVISHNSAFEHYFTADYYKNAMLPLENSDSPFKDVFSNAHEVTAETKENRTIYTQVFEIDNGIEKRCINHWHTLCNLPASDNAVYICGWQDITETRDLINALEVEKNKAIKATVAKSQFLATMSHEIRTPISSIMGFLELLSDSGLSKEQRVEAISLAYATKQSVLGLIGEILDVDKIESGNYQLQPQWVDIPTLVQNTCHSFGAIAASKSIALSCSSTFPEHYLVKIDPQAFKQVLSNLLSNALKFTTEGAVKITTSLGHIDDNHAVIKMTIMDSGSGLLQEEQQQLFKRYSQTSAGRQQTGSGLGLMICKELIKNMQGDLSLESHPGIGTTFTITIPVEISQQVATVEAKAEQPITLPEKLSILIADDHPTNRLLLKRQLNLLGYDVDEATDGVQALHKVSMQHYDLLITDVNMPNMDGFELTRKLREQNSSLPIWGLTANAQANEHEKGLSCGMNLCLFKPLTLDVLKTHLSQLYQVAHIAPQYRHLDIEALKNNTANDLQLMQEILMTFQHETHKDLPAAFQALEAGDNRTFHQCIHRIHGAANILNLQKLINISHQLEITPVSDDSKPEILQLLNSVKEHIAELDQEIAVFCQKND” the entry was “failed”; with “MKFLTVSDDMNFLRQVNTLVAGKGDMDSVIIGEGDAKGLGSKVLYRAKKGTPFDAVSEGILKIAGNYDYIAIGSTEVGREIAGYLSFKTGFYTATEIFSLEFNGQKAHTKRFFYGGKTVIEEESDARILTVAPGVIEAKDLGTTPEIRDLEIGQSRIKITKFVSKAGGSVRLEDAKVIVSVGRGIGSKENIAKIEPLAKALNGEIAGSRPVCMDYGWLSEDRQVGLSGKKVSPKVYIALGISGQIQHIAGMRNSKTVIAINKDKNAPIFQECDYGIVGDLFTVVPKILEQLKQ”, “failed”.
